# Reference: US20240269252A1, “COMPOSITIONS FOR INDUCING AN IMMUNE RESPONSE” (President and Fellows of Harvard College, priority 2017, published 2024)
# Assay: Biomolecule release quantification: incorporation efficiency and release kinetics of CpG ODN, GM-CSF and antigen from cryogel vaccines
# Assay type: physicochemical
# Conditions: for encapsulation efficiency: encapsulated in vaccine cryogel by cryo-polymerization
Substance,"burst release of the loaded amount (GM-CSF from vaccine cryogel, in vitro)",encapsulation efficiency,GM-CSF released (over the first 5 days in vitro),CpG-ODN eluted from the hydrogel (within the first 2 days)
granulocyte-macrophage colony-stimulating factor [GM-CSF],about 8%,87%,85%,–
"5′-TCCATGACGTTCCTGACGTT-3′ [CpG-ODN, reference compound]",–,48%,–,50%
